Data from patent publication US20260217862A1 (NBIOS, published 2026).

Target: T1, Human Integrin αVβ3 (human, UniProt P06756 31-992; P05106 27-718)
T1 construct: Commercial heterodimer from ACROBiosystems; No catalogue number or construct limits are printed; also called Integrin aVß3; integrin (ITG)
Experiment: ELISA, CtsZ coated 200 ng/well, integrin αVβ3 titrated from 200 nM in 1/3 steps, detected with biotinylated anti-integrin alpha V antibody and streptavidin-HRP
Method: After coating 1×PBS (pH 7.4) containing 200 ng of CtsZ in each well of a 96-well high-binding plate at 4° C. for 16 hours, followed by washing twice with a washing buffer (20 mM Tris-HCl, 150 mM NaCl, 1 mM MnCl₂, 0.05% Tween-20), blocking was performed at room temperature for 2 hours using a blocking buffer (washing buffer containing 3% BSA). After washing twice with a washing buffer, binding was performed at room temperature for 2 hours using a dilution buffer (washing buffer containing 0.5% BSA) containing 200 nM, ⅓ eq. integrin αVβ3. After washing 4 times with a washing buffer, biotinylated anti-human integrin alpha V antibody (diluted to 1:100 with dilution buffer) was treated at room temperature for 1 hour. After washing 4 times with a washing buffer, HRP-conjugated streptavidin was treated at room temperature for 1 hour. After washing 4 times with a washing buffer, followed by addition of ultra TBM matrix, reaction was performed for 2 minutes and the reaction was stopped by adding 2 M H₂SO₄. KD values were calculated from the absorbance at 450 nm using the Prism7 software.
Because CtsZ has an RGD motif binding to integrin, particularly integrin αVβ3, in the pro-region, it was investigated whether the purified CtsZ was in active form by measuring binding affinity for integrin αVβ3 purchased from ACROBiosystems.

T1 sequence (P06756 31-992 limits assumed, chain 1 of 2): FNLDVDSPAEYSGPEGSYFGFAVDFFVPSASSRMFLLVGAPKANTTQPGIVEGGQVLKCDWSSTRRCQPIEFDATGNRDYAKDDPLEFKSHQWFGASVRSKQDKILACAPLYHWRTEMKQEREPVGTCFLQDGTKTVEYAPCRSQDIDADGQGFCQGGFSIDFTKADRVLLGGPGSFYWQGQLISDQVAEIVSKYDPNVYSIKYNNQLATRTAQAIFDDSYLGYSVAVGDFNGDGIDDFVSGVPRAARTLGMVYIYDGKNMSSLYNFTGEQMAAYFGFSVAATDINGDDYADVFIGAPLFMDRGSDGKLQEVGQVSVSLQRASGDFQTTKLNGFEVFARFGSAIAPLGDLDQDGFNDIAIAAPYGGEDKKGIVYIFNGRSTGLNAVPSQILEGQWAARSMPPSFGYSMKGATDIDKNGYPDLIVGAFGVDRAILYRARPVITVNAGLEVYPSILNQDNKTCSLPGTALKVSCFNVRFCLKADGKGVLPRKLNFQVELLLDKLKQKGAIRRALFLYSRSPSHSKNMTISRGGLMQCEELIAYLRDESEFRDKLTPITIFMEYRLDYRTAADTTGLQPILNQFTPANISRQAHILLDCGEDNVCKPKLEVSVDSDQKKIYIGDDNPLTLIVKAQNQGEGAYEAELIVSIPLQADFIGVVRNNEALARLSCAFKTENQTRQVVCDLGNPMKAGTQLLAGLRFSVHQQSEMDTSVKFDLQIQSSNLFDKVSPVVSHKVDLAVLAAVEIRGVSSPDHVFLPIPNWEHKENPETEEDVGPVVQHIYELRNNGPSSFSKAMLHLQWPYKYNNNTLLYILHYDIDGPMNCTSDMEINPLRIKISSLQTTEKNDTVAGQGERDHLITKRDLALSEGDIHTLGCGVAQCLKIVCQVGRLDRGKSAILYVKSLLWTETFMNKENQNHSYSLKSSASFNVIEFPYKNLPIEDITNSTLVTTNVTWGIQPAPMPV
T1 sequence (P05106 27-718 limits assumed, chain 2 of 2): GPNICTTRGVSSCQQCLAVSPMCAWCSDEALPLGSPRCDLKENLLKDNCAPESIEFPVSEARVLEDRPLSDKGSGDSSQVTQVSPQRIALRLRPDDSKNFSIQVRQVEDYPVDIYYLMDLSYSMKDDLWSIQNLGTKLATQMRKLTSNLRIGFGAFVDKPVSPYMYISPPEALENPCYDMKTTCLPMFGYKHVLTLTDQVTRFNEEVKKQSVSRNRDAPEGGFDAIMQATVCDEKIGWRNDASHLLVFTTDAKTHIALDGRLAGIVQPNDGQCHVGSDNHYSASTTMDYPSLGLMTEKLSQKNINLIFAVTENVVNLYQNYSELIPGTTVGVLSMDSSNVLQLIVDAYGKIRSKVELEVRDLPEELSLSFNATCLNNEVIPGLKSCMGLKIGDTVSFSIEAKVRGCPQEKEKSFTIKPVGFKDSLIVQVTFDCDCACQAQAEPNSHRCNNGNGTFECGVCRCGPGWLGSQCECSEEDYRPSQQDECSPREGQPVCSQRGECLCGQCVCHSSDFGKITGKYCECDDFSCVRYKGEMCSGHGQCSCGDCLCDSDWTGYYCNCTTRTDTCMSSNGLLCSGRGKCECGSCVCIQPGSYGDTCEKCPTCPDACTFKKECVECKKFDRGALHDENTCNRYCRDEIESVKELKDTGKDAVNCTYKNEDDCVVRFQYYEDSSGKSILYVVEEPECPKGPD

Kd: ~137 nM
B1: recombinant human cathepsin Z with C-terminal 6x-His tag (enzyme)
chain: not shown
notes: Secreted from Expi-293F cells and purified on Ni-NTA; Glycosylated, about 37 kDa on SDS-PAGE against 33 kDa predicted; also called CtsZ; purified CtsZ
